Data as given in patent US20230167458A1, “FORSKOLIN-INDUCIBLE PROMOTERS AND HYPOXIA-INDUCIBLE PROMOTERS” (ASKLEPIOS BIOPHARMACEUTICAL, INC., priority 2020, published 2023).
Entries after “also recorded” stand apart in the source; their conditions may differ.

Key:
[1] = test system: Huh7 human liver cell line; test: Luciferase expression from forskolin-inducible promoters, transient transfection of PM-RQ plasmid in Huh7; assay type: cell-based; set-up: luciferase activity following induction / fold induction of promoter (luciferase activity): dose or concentration left out as unconfirmed
Protocol: Luciferase readouts were normalised to β-galactosidase to produce normalised relative luminometer units (RLUs). β-galactosidase containing pcDNA6 plasmid was used as internal control for transfection efficiency (Thermofisher, V22020). β-galactosidase activity was measured as per manufacturer's instructions (Mammalian βGalactosidase Assay Kit, 75707/75710, Thermo Scientific) using 25 μl of lysate. 25 μl of lysate was transferred into a microplate well and mixed with 25 μl of β-galactosidase Assay Reagent, equilibrated to room temperature. The mixture was incubated at 37° C. for 30 min and absorbance measured at 405 nm.
The forskolin-inducible promoters were initially used to drive expression of luciferase in the Huh7 human liver cell line and the C2C12 […]. The promoter constructs were used to drive expression of luciferase in the PM-RQ plasmid. The tested promoters were synthesised directly upstream of the ATG of PM-RQ plasmid.
• Huh7 cells which are a human liver cell line • DPBS: without CaCl2, without MgCl2 (Gibco, 14190-094) • DMEM (Sigma, D6546) • FBS (Sigma, F9665) • Pen-Strep (Sigma, P4333) • Promega Fugene-HD (E2311) • Forskolin (Sigma, F6886) • NKH477 (Sigma, N3290) • LARII (Dual Luciferase Reporter 1000 assay system, Promega, E1980) • 48 well plates flat bottom (353230, Corning) • Trypsin-EDTA (25200-056, Gibco) • T25 & T75 flask (353108, 353136, Corning) • 15 ml Falcon tubes (430791, Corning) • Stripettes 5 ml, 10 ml and 25 ml (4101,4051,4251, Corning)
Cells were seeded onto a 48 well plate at a density of 25,000 cells/300 μl
• On the day of transfection, DNA to be transfected was diluted to a 100 ng/μl stock solution. DNA to be transfected was the RTV-017, RTV-019 or CMV-IE promoter driving luciferase in the PM-RQ plasmid. • Per 48 well transfection, 45 ng of DNA was mixed with 4.1 μl of Optimem medium. • 0.5 μl of […] was mixed with 4 μl of Optimem medium. • These 2 solutions were mixed and incubated at room temperature for 15 minutes. • The final solution was then added to the well drop wise. • 3 hrs after transfection the inducer was added to the appropriate wells at the indicated concentration. Inducer was forskolin at […].
• 24 hrs after induction, the luciferase activity was measured as described below.
• Luciferase activity was measured using LARII (Dual Luciferase Reporter 1000 assay system, Promega, E1980) • 24 hours after induction, the media was removed from the cells • The cells were washed once in 300 μl of DPBS. • Cells were lysed using 100 μl of passive lysis buffer and incubated with rocking for 15 minutes. • The cell debris was pelleted by centrifugation of the plate at max speed in a benchtop centrifuge for 1 min • For luciferase, 10 μl sample was transferred into white 96-well plate and luminescence measured by injection of 50 μl of LARII substrate
RTV-017 and RTV-019 were transiently transfected into the human liver cell line Huh7 (FIG. 2). RTV-019 was transiently transfected into the […] C2C12 (FIG. 3). The activity of the promoters was assessed using luciferase activity. The luciferase activity was measured with and without the presence of […] forskolin.

HEK293-F = test: Luciferase time course after forskolin induction, transient transfection of suspension HEK293-F; assay type: cell-based, human; details: 20 µM forskolin
Protocol: The tested promoters were synthesised directly upstream of the ATG of PM-RQ plasmid and the suspension cell lines were transiently transfected with the PM-RQ plasmid.
40 ml of cells were grown in a 250 ml vented Erlenmeyer flask (Sigma-Aldrich CLS431144) at 37° C., 20% O2, 8% CO2 with agitation at 100 rpm. Cells were seeded as described in the manufacturer's instructions (300,000 cells/ml). HEK293-F were obtained from Thermofisher, R79007.
One day before transfection, the cells were counted using a haemocytometer and split to 500,000 cells/ml.
On the day of transfection, the cells are seeded to 1,000,000 cells/ml in 500 μl of appropriate medium (Freestyle 293 expression medium, 12338002) in a 24 well plate. […] of DNA per well was then added to 10 μl of OptiMem medium (Thermofisher; 11058021) and incubated for 5 minutes at room temperature.
Concurrently, 0.625 μl of Max reagent (Thermofisher, 16447100) was made up to 10 μl by addition of OptiMem and incubated for 5 minutes at room temperature. After this incubation, both mixes were added to the same tube and incubated at room temperature for 25-30 minutes. […]
24 hours after transfection, the promoters were induced by addition of […] forskolin and luciferase activity was measured 0, 3, 5 and 24 hours after induction. Luciferase activity was measured as previously described.

[2] = test system: Huh7 human liver cell line; test: Luciferase expression from promoters in pAAV vector (with ITRs) in Huh7, forskolin or NKH477 induction; set-up: fold induction with forskolin: dose or concentration left out as unconfirmed
Protocol: The forskolin-inducible promoters RTV-017, RTV-019 and FORCYB1 were then used to drive expression of luciferase in a pAAV vector in the Huh7 human liver cell line. […] This experiment was performed to investigate the effect of the Inverted Terminal Repeats (ITRs) on the activity of the promoters.
The cells were seeded, transfected and induced as described above. Luciferase expression was measured as described above. In this experiment, the cells were induced by using 20 pM forskolin or 7.2 pM of the water soluble derivative NKH477.

B1: RTV-019: synthetic forskolin-inducible promoter, SEQ ID NO: 44; 3× ATF6, 4× AP1(1) and 3× HRE1 TFBS and CMV-MP (nucleic acid)
DNA: TGACGTGCTGATGATGCGTAGCTAGTAGTTGACGTGCTGATGATGCGTAGCTAGTAGTTGACGTGCTGATGATGCGTAGCTAGTAGTTGAGTCAGATGATGCGTAGCTAGTAGTTGAGTCAGATGATGCGTAGCTAGTAGTTGAGTCAGATGATGCGTAGCTAGTAGTTGAGTCAGATGATGCGTAGCTAGTAGTCTGCACGTAGATGATGCGTAGCTAGTAGTCTGCACGTAGATGATGCGTAGCTAGTAGTCTGCACGTAGATGATGCGTAGCTAGTAGTGCAGTTAGCGTAGCTGAGGTACCGTCGACGATATCGGATCCAGGTCTATATAAGCAGAGCTCGTTTAGTGAACCGTCAGATCGCCTAGATACGCCATCCACGCTGTTTTGACCTCCATAGAAGATCGCCACC
modifications: Synp-RTV-019
notes: 3× ATF6, 4× AP1(1) and 3× HRE1 TFBS and CMV-MP
luciferase activity without induction (background) ([1]; Huh7, before addition of forskolin): low background activity | luciferase activity following induction ([1]; Huh7, forskolin): high activity; also recorded: much higher activity | fold induction of promoter (luciferase activity) ([1]; Huh7 liver cells, PM-RQ plasmid, forskolin, 24 hrs after induction): 24 fold | relative rank of promoter (fold induction/strength) (HEK293-F): strongest | fold induction with forskolin ([2]; Huh7): 98 fold | luciferase activity without induction (background) ([2]; Huh7): low background activity | fold induction with NKH477 ([2]; Huh7, 7.2 pM NKH477): 86 fold | luciferase activity following induction ([2]; Huh7, or 7.2 pM NKH477): high activity
